Results published in patent US11633499B2, “Anti-TMEM-180 antibody, anticancer drug and cancer testing method” (NATIONAL CANCER CENTER JAPAN, priority 2016, dated 2023).

T1: TMEM-180 (Homo sapiens, UniProt Q14CX5)
T1 construct: endogenous in cells; host or cells: DLD-1 colon cancer cell line (parent / wild type); culture supernatant exosomes in A20
T1 sequence (Q14CX5 1-517): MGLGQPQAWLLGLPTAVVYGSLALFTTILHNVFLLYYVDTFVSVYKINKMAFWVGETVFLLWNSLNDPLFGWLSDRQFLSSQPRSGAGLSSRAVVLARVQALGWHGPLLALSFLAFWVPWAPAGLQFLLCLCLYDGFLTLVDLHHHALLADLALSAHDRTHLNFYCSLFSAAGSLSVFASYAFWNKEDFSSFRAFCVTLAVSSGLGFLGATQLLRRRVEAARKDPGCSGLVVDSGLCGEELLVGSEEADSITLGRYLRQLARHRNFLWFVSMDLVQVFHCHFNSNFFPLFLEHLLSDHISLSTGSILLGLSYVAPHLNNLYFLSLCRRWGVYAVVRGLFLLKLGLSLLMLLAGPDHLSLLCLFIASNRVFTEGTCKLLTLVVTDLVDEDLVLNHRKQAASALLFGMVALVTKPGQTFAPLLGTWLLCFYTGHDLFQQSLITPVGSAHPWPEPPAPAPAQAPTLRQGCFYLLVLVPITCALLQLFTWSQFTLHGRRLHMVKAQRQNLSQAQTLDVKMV


Assays:
colon cancer DLD-1 cells = assay: Cytocidal effect of anti-TMEM-180 IgM antibody (WST-8), DLD-1; type: cell-based, human; conditions: hybridoma culture supernatant adjusted to 80, 20 or 5 μg/mL, 96 hours, FIGS. 7 and 8
Method: (§1) DLD-1 cells and K562 cells were added to a 96-well plate at 1×10^3 cells/100 μL/well followed by culturing for 24 hours. 50 μL of medium were removed from each well of the 96-well plate followed by the addition of rat IgM antibody clone 98-producing hybridoma culture supernatant or rat IgM antibody clone 101-producing hybridoma culture supernatant, in which antibody concentration had been adjusted to 80 μg/mL, 20 μg/mL or 5 μg/mL, at 50 μL/well. Here, n number in each culture condition was 3, and wells containing medium only were prepared as controls. […] After culturing for 96 hours, WST-8 (Dojindo Laboratories, Cell Counting Kit-8) was added at 10 μL/well followed by measuring absorbance at 450 nm with a microplate reader after culturing for 3 hours. The relative values of absorbance at each antibody concentration were plotted by plotting antibody concentration on the horizontal axis and assigning a value of 1 to the optical absorbance of the well containing medium only. […] Cytocidal effects were also observed for other colon cancer cells Difi, Carl, SW480 and Colo201.

DLD-1 colon cancer cells = assay: Fluorescent immunostaining of DLD-1 colon cancer cells; type: binding, human; conditions: fixed and permeabilized DLD-1; antibody concentrations of clones not aligned; FIG. 4
Method: DLD-1 cells were added to a 96-well plate (Corning Incorporated, CeIIBIND) to a concentration of 5×10^3 cells/well and subjected to cell staining after culturing for 2 days. The cells were subjected to fixation and permeation treatment in the manner indicated below. After washing the cell culturing plate twice with PBS at 200 μL/well, the washings were removed followed by the addition of 4% para-formaldehyde-phosphate buffer (Wako Pure Chemical Industries, Ltd.) containing 0.1% TRITON™ (surfactant) X-100 (Wako Pure Chemical Industries, Ltd.) at 100 µL/well while cooling with ice and fixing the cells for 10 minutes. After removing the fixation solution, the plate was washed once with PBS at 200 μL/well and once with a mixture of 1% FBS in PBS at 200 μL/well to obtain a cell-immobilized plate. The cells were stained in the manner indicated below. Namely, after removing medium from the non-immobilized cell culturing plate and removing washings from the cell-immobilized plate, […] hybridoma culture supernatant or diluted antibody solution was added at 50 μL/well. After allowing to react for 1 hour on ice, the plate was washed once with PBS at 200 μL/well and twice with a mixture of 1% FBS in PBS at 200 μL/well. After removing the washings, a mixture of 5 μg/mL ALEXAFLUOR 647@ (fluorescent compound) goat anti-rat IgG (H-L), 2 μg/mL Hoechst 33342 and 1% FBS/PBS was added at 50 μL/well. After allowing to react for 1 hour on ice, the plate was washed twice with PBS at 200 μL/well. PBS was then added at 50 μL/well followed by measuring with ArrayScan (Thermo Fisher Scientific Inc.).

[1] = tested on: hematologic tumor K562 cells; assay: Cytocidal effect of anti-TMEM-180 IgM antibody (WST-8), K562; type: cell-based; conditions: hybridoma culture supernatant adjusted to 80, 20 or 5 μg/mL, 96 hours, FIGS. 7 and 8
Method: as §1

colon cancer cell lines = assay: Flow cytometry (FACS) with anti-TMEM-180 IgM clones, colon cancer; type: binding; conditions: six types of colon cancers; FIG. 3
Method: (§2) Cancer cells targeted for measurement were cultured in medium and then added to a V-bottom 96-well plate (Corning Incorporated) to a concentration of 1×10^5 cells/well. The plate was centrifuged for 3 minutes at 440×g and 4° C. followed by removing the supernatant, adding antibody-producing hybridoma culture supernatant or antibody solution to the cell pellet at 50 μL/well and suspending therein. After allowing to react for 45 minutes on ice, the plate was washed three times with a mixture of 0.1% BSA, 2 mM EDTA and PBS at 200 μL/well. The supernatant was removed and secondary antibody was added to the cell pellet at 50 μL/well followed by suspending the cells therein. ALEXAFLUOR 647@ (fluorescent compound) goat anti-rat IgG (H-L) (Life Technologies Corporation) was used for the secondary antibody after diluting 400-fold with a mixture of 0.1% BSA, 2 mM EDTA and PBS. After allowing to react for 45 minutes on ice, the plate was washed three times with a mixture of 0.1% BSA, 2 mM EDTA and PBS at 200 μL/well. After removing the supernatant, 50 ng/mL of propidium iodide, 0.1% BSA, 2 mM EDTA and PBS were added to the cell pellet at 250 µL/well followed by suspending therein. The cells stained in this manner were measured using a flow cytometer such as the Guava easyCyte 8HT (Merck Millipore Corporation) followed by analysis of the resulting data using FlowJO (Tomy Digital Biology Co., Ltd.). FACS analysis was carried out using colon cancer, brain tumor and hematologic cancer.

brain tumor cell lines = assay: Flow cytometry (FACS) with anti-TMEM-180 IgM clones, brain tumor; type: binding; conditions: four types of brain tumors; FIG. 3
Method: as §2

TMEM-180 = biological target: T1, TMEM-180; assay: FACS of DLD-1 parent line and TMEM-180 knockout line; type: binding; conditions: for FACS shift, TMEM-180 knockout line versus parent line: DLD-1 parent line vs TMEM-180 knockout line, FIG. 5; for specific recognition of TMEM-180: conclusion from DLD-1 parent vs knockout FACS
Method: The plate was centrifuged for 3 minutes at 440×g and 4° C. followed by removing the supernatant, adding antibody-producing hybridoma culture supernatant or antibody solution to the cell pellet at 50 μL/well and suspending therein. After allowing to react for 45 minutes on ice, the plate was washed three times with a mixture of 0.1% BSA, 2 mM EDTA and PBS at 200 μL/well. The supernatant was removed and secondary antibody was added to the cell pellet at 50 μL/well followed by suspending the cells therein. […] After allowing to react for 45 minutes on ice, the plate was washed three times with a mixture of 0.1% BSA, 2 mM EDTA and PBS at 200 μL/well. […] The cells stained in this manner were measured using a flow cytometer such as the Guava easyCyte 8HT (Merck Millipore Corporation) followed by analysis of the resulting data using FlowJO (Tomy Digital Biology Co., Ltd.). FACS analysis was carried out using colon cancer, brain tumor and hematologic cancer.
Flow cytometry was carried out in accordance with the procedure described in the above-mentioned section 3. […] The supernatant of a culture of hybridoma producing rat IgM antibody clone 365 was used as a negative control after similarly diluting to 1 μg/mL. […] A mixture of RPMI and 10% FBS was used to dilute each of the antibodies. Furthermore, antibody concentration in the hybridoma culture supernatant was measured by rat IgM-specific ELISA (Bethyl Laboratories).

[2] = tested on: human colon cancer formalin-fixed section; assay: Immunostaining of formalin-fixed section of human colon cancer surgical specimens; type: binding; conditions: 1 μg/mL, FIG. 6
Method: Anti-TMEM-180 IgM rat antibody (clone 98) was reacted with a colon cancer formalin-fixed section at 1 μg/mL. HRP-labeled anti-rat antibody was used as secondary antibody and the section was stained with DAB followed by post-staining with hematoxylin.

Molecule | cytocidal effects against DLD-1 cells (colon cancer DLD-1 cells) | fluorescent immunostaining (pattern, intensity) (DLD-1 colon cancer cells) | cytocidal effects against K562 cells [1] | FACS reactivity to colon cancers (colon cancer cell lines) | FACS reactivity to brain tumors (brain tumor cell lines) | FACS shift, TMEM-180 knockout line versus parent line (TMEM-180) | specific recognition of TMEM-180 (TMEM-180) | staining of colon cancer section ([2]; DAB) | localisation of staining in colon cancer cells [2]
clone 101: rat IgM anti-TMEM-180 monoclonal antibody; variable regions SEQ ID NOs: 15 and 16 (antibody, V domains shown) VH: MAILVLLLCLVTIPHSVLSQVQLKETGPGLVQPTQTLSITCTVSGFSLTSYYMQWVRQTPGKGLEWMGFIRSGGSTEYNSEFKSRLSISRDTSKNQVFLKMNSLKTEDTGVYYCARAFYGGYYFDYWGQGVMVTVSS VL: MGIRMESHTRVFIFLLLWLSGADGDIVMTQSPTSISISVGERVTMNCKASQNVGSNVDWYQQKTGQSPKLLIYKASNRYTGVPDRFTGSGSGTDFTFTISNMQAEDLAVYYCMQSNTKYTFGAGTKLELK | demonstrated cytocidal effects | weaker fluorescence intensity than clone 98 and the cytoplasm was also stained | did not demonstrate cytocidal effects | positive for four types of colon cancers | negative for all of the brain tumors |  |  |  | 
clone 98: rat IgM anti-TMEM-180 monoclonal antibody; heavy chain variable region SEQ ID NO: 13, light chain variable region SEQ ID NO: 14 (antibody, V domains shown) VH: MAVLVLLLCLVTFPTCVLSQVQLKESGPGLVQPSQTLSLTCTVSGFSLTRYNVHWVRQPTGKGLEWMGVIWTGGSTDYNSALKSRLSISRDTSKSQVFLKMNSLQTEDIATYYCARDLGYWGQGVMVTVSS VL: MMSPAQFLFLLMLWIQETHSDIVMTQTPLSLSVAIGQSASISCKSSQSLKYRDGKTYLNWVFQSPGQSPKRLIYQVSKLDSGVPDRFSGTGSETDFTLKISRVEAEDLGVYYCCQGSYSPHTFGAGTKLELK | demonstrated cytocidal effects | stained primarily in the membrane | did not demonstrate cytocidal effects | positive for all six types of colon cancers | all four types of brain tumors | considerable left shift | specifically recognize TMEM-180 | stained specifically | Both the cell membrane and cytoplasm of the colon cancer cells were stained
clone 212: rat IgM anti-TMEM-180 monoclonal antibody; variable regions SEQ ID NOs: 46 and 47 (antibody, V domains shown) VH: MDIRLSLAFLVLFIKGVQCEVQLVESGGGLVQPGNSLKLSCAASGFTFSDYAMAWVRQSPKKGLEWVATIIYDGSSTYYRDSVKGRFTISRDNAKSTLYLQMDSLRSEDTATYYCATHWYWYFDFWGPGTMVTVSS VL: MGVPTQLLGLLLLWITDAICDIQMTQSPASLSASLGETVSIECLASEGISNDLAWYQQKSGKSPQLLIYAASRLQDGVPSRFSGSGSGTRYSLKISGMQPEDEADYFCQQSYKYPLTFGSGTKLEIK |  | weaker fluorescence intensity than clone 98 and the cytoplasm was also stained |  | positive for all six types of colon cancers | positive for only one type of brain tumor |  |  |  | 
rat-human chimeric antibody clone 98: rat-human chimeric IgG1 antibody carrying clone 98 variable regions (antibody, V domains shown) VH: QVQLKESGPGLVQPSQTLSLTCTVSGFSLTRYNVHWVRQPTGKGLEWMGVIWTGGSTDYNSALKSRLSISRDTSKSQVFLKMNSLQTEDIATYYCARDLGYWGQGVMVTVSS VL: DIVMTQTPLSLSVAIGQSASISCKSSQSLKYRDGKTYLNWVFQSPGQSPKRLIYQVSKLDSGVPDRFSGTGSETDFTLKISRVEAEDLGVYYCCQGSYSPHTFGAGTKLELK |  |  |  |  |  | considerable left shift | specifically recognize TMEM-180 |  | 
